Results on 11 molecules are retold here after patent publication US20240270846A1 (published 2024).

One experiment addresses T1, human CD137 (human, UniProt Q07011 24-186).
T1 construct: Soluble analyte in the Biacore assay; also called 4-1BB; hCD137
As to the kind of experiment: SPR Biacore T200, IgG captured on protein A, antigen as analyte, 25 C.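 Note: antigens flowed over a CM3 chip for 120 s association, KD derived from ka and kd, running buffer (ACES, NaCl, Tween20, pH 7.4) served as blank.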 On the technique in general: SPR reads the build-up and loss of mass on a sensor chip optically.

In the next experiment the target is T2, cynomolgus monkey CD137 (cynomolgus monkey, UniProt Q07011 24-186 (human entry), limits assumed).
T2 construct: Soluble analyte in the Biacore assay; also called cyno CD137
T2 chain: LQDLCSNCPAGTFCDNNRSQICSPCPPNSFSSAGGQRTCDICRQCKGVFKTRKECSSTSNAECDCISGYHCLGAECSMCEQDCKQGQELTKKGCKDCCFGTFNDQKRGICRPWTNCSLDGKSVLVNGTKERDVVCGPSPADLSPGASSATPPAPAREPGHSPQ
The experiment is described as above.

A further experiment has as its target T3, human CD3ed (human, UniProt P07766 23-126; P04234 22-105, limits assumed).
T3 construct: The construct injected as 'human CD3ed' in the Biacore assay is not defined; also called human CD3 epsilon/delta heterodimer
The description is as above.

Experiment [1] concerns the target T4, CD3 epsilon homodimer protein (UniProt P07766 23-126).
T4 construct: also called CD3 (CD3 epsilon)
As to the kind of experiment: SPR Biacore T200, CD3 epsilon homodimer immobilised on CM4, one-arm antibody as analyte, single-cycle kinetics; reference unaltered GLS3000 antibody.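 Note: CD3 epsilon homodimer attached to the CM4 chip via amine coupling, measured at 25 °C with HBS-EP+ as running buffer.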
Method: An appropriate amount of CD3 epsilon homodimer protein was immobilized onto Sensor chip CM4 (GE Healthcare Japan Corp.) by the amine coupling method. Then, the antibody having an appropriate concentration was injected thereto as an analyte and allowed to interact with the CD3 epsilon homodimer protein on the sensor chip. Then, the sensor chip was regenerated by the injection of 10 mmol/L glycine-HCl (pH 1.5). The assay was conducted at 25 degrees C., and HBS-EP+(GE Healthcare Japan Corp.) was used as a running buffer. […] Each parameter was calculated using Biacore T200 Evaluation Software (GE Healthcare Japan Corp.).
Specifically, when the amount of the GLS3000-containing antibody bound was defined as X and the amount of the L chain one-amino acid altered form bound was defined as Y, a value of Z (ratio of amounts bound)=Y/X was used.

Positions count from the first letter of the chain named. Names and notes keep the numbering of the source.

T1 sequence (Q07011 24-186 limits assumed): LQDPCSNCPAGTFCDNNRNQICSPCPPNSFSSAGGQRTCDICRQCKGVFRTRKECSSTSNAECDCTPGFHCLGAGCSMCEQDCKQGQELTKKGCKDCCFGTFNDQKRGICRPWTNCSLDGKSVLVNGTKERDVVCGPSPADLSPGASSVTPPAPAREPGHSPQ
T4 sequence (P07766 23-126): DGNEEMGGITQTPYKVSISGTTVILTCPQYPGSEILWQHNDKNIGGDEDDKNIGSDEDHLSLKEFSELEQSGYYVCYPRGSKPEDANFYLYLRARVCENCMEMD
T3 sequence (P07766 23-126 limits assumed, chain 1 of 2): as the sequence (P07766 23-126) above
T3 sequence (P04234 22-105 limits assumed, chain 2 of 2): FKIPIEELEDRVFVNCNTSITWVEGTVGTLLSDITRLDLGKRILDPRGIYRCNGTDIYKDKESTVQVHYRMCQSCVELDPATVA
Method for cynomolgus monkey CD137: (§1) Sensor chip CM3 (GE Healthcare) was immobilized with an appropriate amount of sure protein A (GE Healthcare) by amine coupling. The selected antibodies were captured by the chip to allow interaction to human CD3ed, human CD137 and cyno CD137 as an antigen. The running buffer used was 20 mmol/l ACES, 150 mmol/l NaCl, 0.05% (w/v) Tween20, pH 7.4. All measurements were carried out at 25 degrees C. The antigens were diluted using the running buffer.
(§2) Diluted antigen solutions and the running buffer which is the blank were loaded at a flow rate of 30 micro L/min for 120 seconds to allow each of the antigens to interact with the antibody captured on the sensor chip. […] Next, to regenerate the sensor chip, 10 mmol/L glycine-HCl, pH 1.5 was loaded at a flow rate of 30 micro L/min for 30 seconds and 50 mmol/L NaOH was loaded at a flow rate 30 micro L/min for 30 seconds.
(§3) Kinetic parameters such as the association rate constant ka (1/Ms) and the dissociation rate constant kd (1/s) were calculated based on the sensorgrams obtained by the measurements. The dissociation constant KD(M) was calculated from these constants. Each parameter was calculated using the Biacore T200 Evaluation Software (GE Healthcare).
Method for human CD137: as §1, §2, §3
Method for human CD3ed: as §1, §2, §3

B1: dBBDu_186 / dBBDu_L098 (antibody, human IgG1, V domains shown)
VH: QVQLVESGGGLVQPGRSLRLSCAASGFTFSNAWMHWVRQAPGKGLEWVAQIKDRSNQYATYYAPSVKGRFTISRDDSKNSIYLQMNSLKTEDTAVYYCHYVHYAQASTVLPAFGVDAWGQGTTVTVSS
VL: DIVMTQSPLSLPVTPGEPASISCAASEELVHINRYIFLHWYQQKPGQAPRLLIYKVSNRFIGVPDRFSGSGSGTDFTLKISRVEAEDVGVYYCAQGSQVPFTFGQGTKLEIK
notes: Tested as IgG (human IgG1 constant region, kappa light chain); also called dBBDu186/L098
In the experiment with human CD137, B1 came in with a dissociation constant (Kd) of 2.31 µM, a koff of 0.000534 s⁻¹ and an on-rate (kon) of 231 M⁻¹ s⁻¹. In the experiment with cynomolgus monkey CD137, this molecule yielded a Kd of 134 µM and a koff of 0.00119 s⁻¹. In the experiment with human CD3ed, this molecule displayed a dissociation constant Kd of 1.88 µM, a koff of 0.0209 s⁻¹ and an association rate constant (kon) of 11100 M⁻¹ s⁻¹.

B2: dBBDu_186 / dBBDu_L108 (antibody, human IgG1, V domains shown)
VH: B1 VH
VL: B1 VL with A24R, A25T, V30L, Y35F, I36T, I61M, Q98A
notes: Tested as IgG (human IgG1 constant region, kappa light chain); also called dBBDu186/L108
In the experiment with human CD137, B2 gave a Kd of 2.41 µM, an off-rate (koff) of 0.00081 s⁻¹ and an on-rate constant (kon) of 335 M⁻¹ s⁻¹. Besides, in the experiment with cynomolgus monkey CD137, binding was characterised by a dissociation constant (Kd) of 16.1 µM, the koff amounted to 0.00361 s⁻¹ and the kon is 225 M⁻¹ s⁻¹. In the experiment with human CD3ed, this molecule registered a dissociation constant Kd of 3.01 µM, a dissociation rate constant (koff) of 0.0408 s⁻¹ and an on-rate (kon) of 13600 M⁻¹ s⁻¹.

B3: dBBDu_186 / dBBDu_L100 (antibody, human IgG1, V domains shown)
VH: B1 VH
VL: B1 VL with A24S, S57Y, I61M, A94G, Q98S
notes: Tested as IgG (human IgG1 constant region, kappa light chain); also called dBBDu186/L100
For the molecule B3, in the experiment with human CD137, binding was characterised by a dissociation constant (Kd) of 1.91 µM, the koff worked out at 0.000746 s⁻¹ and the association rate constant (kon) came to 391 M⁻¹ s⁻¹. In the experiment with cynomolgus monkey CD137, this molecule gave a dissociation constant Kd of 70.4 µM and a koff of 0.00208 s⁻¹. In the experiment with human CD3ed, this molecule showed an equilibrium dissociation constant (Kd) of 3.36 µM, a koff of 0.0546 s⁻¹ and a kon of 16200 M⁻¹ s⁻¹.

B4: dBBDu_186 / dBBDu_L106 (antibody, human IgG1, V domains shown)
VH: B1 VH
VL: B1 VL with A24S, A25T, V30L, Y35F, S57A, I61M
notes: Tested as IgG (human IgG1 constant region, kappa light chain); also called dBBDu186/L106
In the experiment with human CD137, B4 yielded a Kd of 3.44 µM, a koff of 0.000447 s⁻¹ and a kon of 130 M⁻¹ s⁻¹. In the experiment with cynomolgus monkey CD137, this molecule had an equilibrium dissociation constant (Kd) of 61.3 µM and an off-rate constant (koff) of 0.00126 s⁻¹. Further, in the experiment with human CD3ed, binding was characterised by a dissociation constant (Kd) of 3.09 µM, the koff amounted to 0.0318 s⁻¹ and the on-rate constant (kon) is 10300 M⁻¹ s⁻¹.

B5: dBBDu_189 / dBBDu_L119 (antibody, human IgG1, V domains shown)
VH: B1 VH with V48I, T108S, V109L, A112S
VL: B1 VL with A24T, E27Q, Y35F
notes: Tested as IgG (human IgG1 constant region, kappa light chain); also called dBBDu189/L119
In the experiment with human CD137, B5 displayed an equilibrium dissociation constant (Kd) of 2.71 µM, an off-rate constant (koff) of 0.000402 s⁻¹ and an association rate constant (kon) of 148 M⁻¹ s⁻¹. In addition, in the experiment with cynomolgus monkey CD137, the dissociation constant Kd was found to be 35.7 µM and the dissociation rate constant (koff) was 0.00122 s⁻¹. Also, in the experiment with human CD3ed, binding was put at a Kd of 2.06 µM, the dissociation rate constant (koff) amounted to 0.0258 s⁻¹ and the kon stood at 12500 M⁻¹ s⁻¹.

B6: GLS3000 Q90S one-amino acid altered one-arm antibody (CE115HA000-pE22Hh / Kn010G3 / GLS3000 Q90S-kappa) (antibody, human IgG1, kappa, L234A L235A, N297A, name in Kabat numbering)
heavy: QVQLVESGGGVVQPGRSLRLSCAASGFTFSNAWMHWVRQAPGKGLEWVAQIKAKSNNYATYYAESVKGRFTISRDDSKNSLYLQMNSLKTEDTAVYYCRYVHYGAYYGVDAWGQGTTVTVSSASTKGPSVFPLAPSSKSTSGGTAALGCLVKDYFPEPVTVSWNSGALTSGVHTFPAVLQSSGLYSLSSVVTVPSSSLGTQTYICNVNHKPSNTKVDKKVEPKSCDKTHTCPPCPAPEAAGGPSVFLFPPKPKDTLMISRTPEVTCVVVDVSHEDPEVKFNWYVDGVEVHNAKTKPREEQYASTYRVVSVLTVLHQDWLNGKEYKCKVSNKALPAPIEKTISKAKGQPREPQVYTLPPSRCELTKNQVSLSCAVKGFYPSDIAVEWESNGQPENNYKTTPPVLDSDGSFFLVSKLTVDKSRWQQGNVFSCSVMHEALHNHYTQKSLSLSPDYKDDDDK
chain: EPKSSDKTHTCPPCPAPELLGGPSVFLFPPKPKDTLMISRTPEVTCVVVDVSHEDPEVKFNWYVDGVEVHNAKTKPREEQYNSTYRVVSVLTVLHQDWLNGKEYKCKVSNKALPAPIEKTISKAKGQPREPQVCTLPPSRDELTKNQVSLWCLVKGFYPSDIAVEWESNGQPENNYKTTPPVLDSDGSFFLYSKLTVDKSRWQQGNVFSCSVMHEALHNRYTQKSLSLSP
light: DIVMTQSPLSLPVTPGEPASISCRSSQSLVHSNRNTYLHWYQQKPGQAPRLLIYKVSNRFSGVPDRFSGSGSGTDFTLKISRVEAEDVGVYYCGSGTQVPYTFGQGTKLEIKRTVAAPSVFIFPPSDEQLKSGTASVVCLLNNFYPREAKVQWKVDNALQSGNSQESVTEQDSKDSTYSLSSTLTLSKADYEKHKVYACEVTHQGLSSPVTKSFNRGEC
notes: One-arm antibody; substitution position in Kabat numbering; also called L chain altered form, Kabat 90 Q to S
Take B6: the “dissociation constant KD(M) ratio of L chain altered form to GLS3000” value (“dissociation constant KD(M) ratio” below) in experiment [1] turned out to be 0.96 ratio.

B7: GLS3000 Q90Y one-amino acid altered one-arm antibody (CE115HA000-pE22Hh / Kn010G3 / GLS3000 Q90Y-kappa) (antibody, human IgG1, kappa, L234A L235A, N297A, name in Kabat numbering)
heavy: B6 heavy
chain: B6 chain
light: B6 light with S95Y
notes: One-arm antibody; substitution position in Kabat numbering; also called L chain altered form, Kabat 90 Q to Y
Turning to B7, in experiment [1], the “dissociation constant KD(M) ratio” value was 36.3 ratio.

B8: GLS3000 Q93P one-amino acid altered one-arm antibody (CE115HA000-pE22Hh / Kn010G3 / GLS3000 Q93P-kappa) (antibody, human IgG1, kappa, L234A L235A, N297A, name in Kabat numbering)
heavy: B6 heavy
chain: B6 chain
light: B6 light with S95Q, Q98P
notes: One-arm antibody; substitution position in Kabat numbering; also called L chain altered form, Kabat 93 Q to P
Take B8: the “dissociation constant KD(M) ratio” value in experiment [1] was found to be 39.5 ratio.

B9: GLS3000 V94R one-amino acid altered one-arm antibody (CE115HA000-pE22Hh / Kn010G3 / GLS3000 V94R-kappa) (antibody, human IgG1, kappa, L234A L235A, N297A, name in Kabat numbering)
heavy: B6 heavy
chain: B6 chain
light: B6 light with S95Q, V99R
notes: One-arm antibody; substitution position in Kabat numbering; also called L chain altered form, Kabat 94 V to R
On to B9, for which the “dissociation constant KD(M) ratio” value in experiment [1] was found to be 1.11 ratio.

B10: GLS3000 Q93S one-amino acid altered one-arm antibody (CE115HA000-pE22Hh / Kn010G3 / GLS3000 Q93S-kappa) (antibody, human IgG1, kappa, L234A L235A, N297A, name in Kabat numbering)
heavy: B6 heavy
chain: B6 chain
light: B6 light with S95Q, Q98S
notes: One-arm antibody; substitution position in Kabat numbering; also called L chain altered form, Kabat 93 Q to S
For B10, the “dissociation constant KD(M) ratio” value in experiment [1] came to 0.75 ratio.

B11: GLS3000 V94S one-amino acid altered one-arm antibody (CE115HA000-pE22Hh / Kn010G3 / GLS3000 V94S-kappa) (antibody, human IgG1, kappa, L234A L235A, N297A, name in Kabat numbering)
heavy: B6 heavy
chain: B6 chain
light: B6 light with S95Q, V99S
notes: One-arm antibody; substitution position in Kabat numbering; also called L chain altered form, Kabat 94 V to S
On to B11, for which the “dissociation constant KD(M) ratio” value in experiment [1] stood at 0.81 ratio.

For orientation: Kd means a measure of binding affinity in units of concentration. The term koff denotes the rate constant with which the complex falls apart. Usually kon stands for a measure of how fast the partners come together.
